# Laboratory results reported in patent publication US20250152746A1, “BASE EDITING OF ANGPTL3 AND METHODS OF USING SAME FOR TREATMENT OF DISEASE” (Verve Therapeutics, Inc., priority 2020, published 2025).
# Tests used:
# ANGPTL3 gene [1] = experiment: ANGPTL3 gRNA/SpCas9 editing in primary human hepatocytes (Table 3); type: cell-based
# Procedure: (§1) In set of experiments, PCSK9 gRNAs were co-transfected with an equivalent amount (1:1 ratio by weight) of in vitro transcribed commercially available SpCas9 mRNA MS002 purchased from TriLink Biotechnologies into primary human hepatocytes at 2500, 500, or 100 ng/RNA/mL and processed as described in detailed methods. Extracted genomic DNA was analyzed for gene editing at the target site with next-generation sequencing of PCR amplicons generated around the target sites. Samples were prepared using the Nextera XT DNA library preparation kit (Illumina) according to the manufacturer's protocol. Briefly, two rounds of PCR were performed first to amplify the region of interest and second to add DNA sequences required for next generation sequencing and sample identification to the initial product. The final amplicon was sequenced on the Illumina MiSeq instrument according to the manufacturer's protocol. A wide range of editing activities (Table 2) were observed. In a second set of experiments, ANGPTL3 gRNAs were co-transfected with an equivalent amount of in vitro transcribed SpCas9 mRNA (1:1 ratio by weight) into primary human hepatocytes and processed and analyzed similarly (Table 3).
# (§2) Plating, culturing, and transfection of primary hepatocytes. Primary human liver hepatocytes (PHH) and primary cynomolgus liver hepatocytes (PCH) from BioIVT were cultured per the manufacturer's protocol. Briefly, primary human hepatocytes and primary cyno hepatocytes were obtained as frozen aliquots from BioIVT. Four lots of primary human hepatocytes, each derived from a de-identified individual donor, were used for the experiments: STL (main donor) was used for all experiments, including screening experiments and off-target experiments; HLY, JLP, and TLY were used for off-target experiments. The HFG lot of primary cyno hepatocytes were used for experiments. Following the manufacturer's instructions, cells were thawed and rinsed prior to plating in 24-well plates that had been coated with bovine collagen overnight, with a density of approximate 350,000 cells/well in INVITROGRO hepatocyte medium supplemented with TORPEDO antibiotic mix (BioIVT). The cells were thawed and resuspended in hepatocyte thawing medium followed by centrifugation at 100 g for 10 min at 4° C. The supernatant was discarded, and the pelleted cells resuspended in hepatocyte plating medium. Each vial contains approximately 5 million cells that were used for plating one 24-well plate. Plated cells were allowed to settle and adhere for 4-6 h in a tissue culture incubator at 37° C. under 5% CO2 atmosphere. After incubation, cells were checked for monolayer formation. The incubating media were then replaced with fresh hepatocyte maintenance media (complete INVITROGRO medium obtained from BioIVT, the cell line provider). The cells thus became ready for transfection. Each of the gRNAs were co-transfected with an equivalent amount of in vitro transcribed ABE8.8 mRNA (1:1 ratio by molecular weight) into primary human hepatocytes via MessengerMax reagent (Lipofectamine), using various dilutions to assess for editing activity at different concentrations of test article. MessengerMAX from Thermo Fisher is used for transfection. Solution A: desired amount of guide RNA is mixed with 1:1 wt ratio of mRNA in OptiMEM. Solution B: MessengerMAX in OptiMEM. After mixing solutions A and B, the mixture was incubated at room temperature for 20 min. 60 μL of the incubated solution was added dropwise to each cell wells. For protospacer sequences that were a perfect match to the corresponding cynomolgous monkey PCSK9 or ANGPTL3 gene sequence, each gRNA was also co-transfected with an equivalent amount of ABE8.8 mRNA (1:1 ratio by molecular weight) into primary cynomolgous hepatocytes, and followed the same transfection protocol. The cells were then allowed to remain at 37° C. for 3 days. […]
# ANGPTL3 gene [2] = experiment: ANGPTL3 gRNA/SpCas9 editing in primary cynomolgus hepatocytes (Table 3); type: cell-based, cynomolgus monkey
# Procedure: as §1, §2
Molecule,Human Primary Hepatocyte Editing % 100 ng/ml (ANGPTL3 gene [1]) [%],Human Primary Hepatocyte Editing % 500 ng/mL (ANGPTL3 gene [1]) [%],Cyno Primary Hepatocyte Editing % 100 ng/mL (ANGPTL3 gene [2]) [%],Cyno Primary Hepatocyte Editing % 500 ng/ml (ANGPTL3 gene [2]) [%]
"GA113: ANGPTL3 gRNA; protospacer ATTCTGGAGGAAATAACTAG (SEQ ID NO: 111) (nucleic acid, 2'-O-methyl at 1, 2, other sugars, backbone and T or U not given here; further chemistry not fully specified) guide: AUTCTGGAGGAAATAACTAGGTTTTAGAGCTAGAAATAGCAAGTTAAAATAAGGCTAGTCCGTTATCAACTTGAAAAAGTGGCACCGAGTCGGTGCTTTT",6.00,19.97,12.07,26.67
"GA116: ANGPTL3 gRNA; protospacer GTAGAATTTTTTCTTCTAGG (SEQ ID NO: 114) (nucleic acid, 2'-O-methyl at 1, 2, other sugars, backbone and T or U not given here; further chemistry not fully specified) guide: GUAGAATTTTTTCTTCTAGGGTTTTAGAGCTAGAAATAGCAAGTTAAAATAAGGCTAGTCCGTTATCAACTTGAAAAAGTGGCACCGAGTCGGTGCTTTT",3.78,16.33,10.84,19.83
"GA125: ANGPTL3 gRNA; protospacer TGATGGTAAGACACTTTGGT (SEQ ID NO: 123) (nucleic acid, 2'-O-methyl at 1, 2, other sugars, backbone and T or U not given here; further chemistry not fully specified) guide: UGATGGTAAGACACTTTGGTGTTTTAGAGCTAGAAATAGCAAGTTAAAATAAGGCTAGTCCGTTATCAACTTGAAAAAGTGGCACCGAGTCGGTGCTTTT",5.04,16.27,12.91,19.72
"GA126: ANGPTL3 gRNA; protospacer GGAGTAGTTCTTGGTGCTCT (SEQ ID NO: 124) (nucleic acid, 2'-O-methyl at 1, 2, other sugars and backbone not given here; further chemistry not fully specified) guide: GGAGTAGTTCTTGGTGCTCTGTTTTAGAGCTAGAAATAGCAAGTTAAAATAAGGCTAGTCCGTTATCAACTTGAAAAAGTGGCACCGAGTCGGTGCTTTT",6.73,15.21,8.29,17.57
"GA122: ANGPTL3 gRNA; protospacer CTTTTATTTGACTATGCTGT (SEQ ID NO: 120) (nucleic acid, 2'-O-methyl at 1, 2, other sugars, backbone and T or U not given here; further chemistry not fully specified) guide: CUTTTATTTGACTATGCTGTGTTTTAGAGCTAGAAATAGCAAGTTAAAATAAGGCTAGTCCGTTATCAACTTGAAAAAGTGGCACCGAGTCGGTGCTTTT",4.45,13.82,7.28,16.76
"GA117: ANGPTL3 gRNA; protospacer ACTACAAGTCAAAAATGAAG (SEQ ID NO: 115) (nucleic acid, 2'-O-methyl at 1, 2, other sugars and backbone not given here; further chemistry not fully specified) guide: ACTACAAGTCAAAAATGAAGGTTTTAGAGCTAGAAATAGCAAGTTAAAATAAGGCTAGTCCGTTATCAACTTGAAAAAGTGGCACCGAGTCGGTGCTTTT",7.08,16.55,10.01,26.11
